From paper PMC8213676, “OsJAZ11 regulates phosphate starvation responses in rice”

Target: OsPHR2-6XHIS (Oryza sativa, UniProt Q6Z156 1-426)
Test: EMSA; 0.7 ug protein, 50 ng probe; 15 mM HEPES pH 8.0, 30 mM KCl, 1 mM MgCl2, 0.2 mM EDTA, 0.02 mM DTT, 0.6% glycerol, 1 ug poly(dI-dC) in 20 ul, 20 °C 30 min (1 h with 15 mM NaH2PO4 for inhibition assay); gel 0.5X TBE at 4 °C
Conditions: protein: recombinant; tags: 6xHis (pET28a); chain copies: 2; label: DIG 3' end; blunt

OsPHR2-6XHIS, sequence (Q6Z156 whole entry): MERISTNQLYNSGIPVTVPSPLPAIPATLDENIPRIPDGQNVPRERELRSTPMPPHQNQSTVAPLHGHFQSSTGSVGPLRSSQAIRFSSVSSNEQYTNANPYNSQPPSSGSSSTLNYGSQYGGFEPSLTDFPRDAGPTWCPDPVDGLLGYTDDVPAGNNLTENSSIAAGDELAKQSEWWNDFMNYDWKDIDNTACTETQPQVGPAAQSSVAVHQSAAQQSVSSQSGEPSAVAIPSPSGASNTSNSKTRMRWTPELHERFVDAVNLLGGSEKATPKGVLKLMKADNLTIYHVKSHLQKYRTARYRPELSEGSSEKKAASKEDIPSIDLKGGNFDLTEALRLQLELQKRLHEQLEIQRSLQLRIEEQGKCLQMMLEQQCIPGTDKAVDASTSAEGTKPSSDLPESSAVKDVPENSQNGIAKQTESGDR

B1: OsSPX2 promoter P1BS probe (dsDNA)
DNA 1: TATCCCCGTCACGAATATTCCTCTTCCTCC
DNA 2: GGAGGAAGAGGAATATTCGTGACGGGGATA
  binding result: binds
